Laboratory results: patent publication US20240342244A1, “Isthmin Protein Therapeutics for the Treatment of Non-Alcoholic Fatty Liver Disease” (The Board of Trustees of the Leland Stanford Junior …, priority 2021, published 2024)

Legend:
DIO mice = assay: Therapeutic ISM1 administration for five days in DIO mice; assay type: in vivo, mouse; conditions: 5 mg/kg for five days
Procedure: Therapeutic ISM1 recombinant protein administration in vivo. All pharmacologic studies using recombinant ISM1 protein were performed in mice with established diet-induced obesity or non-alcoholic fatty liver disease (NAFLD). For all experiments, male C57BL/6J mice purchased from Jax were fed either a high-fat diet (#D12492, Research Diets) or a NAFLD diet (#D09100310, Research Diets) prior to ISM1 protein injections. In all experiments, mice were mock injected with saline for three days prior to protein or drug injections to prevent stress-induced weight loss. Mice were I.P. injected with vehicle (saline) or indicated doses of ISM1 protein diluted in saline. For the 14-day experiments in NAFLD mice, 7-weeks old mice were fed with NAFLD diet for 3 weeks and then mock injected with saline for 3 days prior to protein injections. The induction of lipid accumulation with NAFLD diet was verified by the significant increase in hepatic lipid levels compared with mice on chow diet at the same time point. […] At the end of the experiments, mice and tissue weights were recorded. […]
Glucose tolerance and insulin tolerance tests. […] Blood glucose levels were measured at 0, 15, 30, 45, 60, 90 and 120 mins. […] Blood glucose levels were measured at 0, 15, 30, 45, 60, 90 and 120 mins.

[1] = Pharmacokinetic measurement of ISM1 blood levels (anti-his ELISA, western blot); assay type: in vivo, mouse; conditions: mice
Procedure: Pharmacokinetic measurements of ISM1 blood levels following ISM1 administration. An anti-his tag ELISA was performed to measure ISM1-his concentrations in blood. Recombinant ISM1 protein was administered at 10 mg/kg I.V. in a total volume of 100 ul. Blood was collected and centrifuged at 6000×g for 10 minutes at room temperature to collect serum. Blood levels were measured using the HisProbe-HRP Conjugate according to the manufacturer's instructions (Thermo #15165). Briefly, samples were prepared by diluting serum in coating buffer at 1:100 ratio and added to wells for overnight incubation at 4° C. Nonspecific binding was blocked by adding blocking buffer and incubating for 30 min at 37° C. The plate was washed three times with wash buffer. HisProbe-HRP (Thermo, #15165) working solution was added to each well. After 15 min incubation at room temperature, the plate was washed four times with wash buffer, followed by adding substrate (Thermo, #34022). After 10 min, 1N sulfuric acid was added to stop the reaction. Absorbance was measured at 450 nm.

human SGBS adipocytes = assay: 2-deoxy-3H-glucose uptake in human SGBS adipocytes; assay type: cell-based
Procedure: Mouse and human pre-adipocytes culture and differentiation. Inguinal fat pads from 4-8 week old C57BL/6J male and female mice were dissected and mechanically digested for 10 min using spring scissors. Digested tissues were incubated in WAT isolation buffer (10 ml PBS, 2.4 U/ml dispase II (#04942078001, Roche), 10 mg/ml collagenase D (#11088858001, Roche) at 37° C. for 45 min. 20 mL growth media was added and the tissue suspension was filtered through a 100-μm cell strainer and centrifuged at 600×g for 5 min. The cell pellets were resuspended in 20 mL growth media, filtered through a 40-μm cell strainer, centrifuged at 600×g for 5 min, resuspended in 10 mL growth media, and plated in 10-cm collagen-coated dishes. The cells were cultured in growth media (DMEM/F-12 Glutamax, Thermo Fisher Scientific #10565018) supplemented with 10% fetal bovine serum. Two days post-confluency, differentiation was induced with growth media containing 1 μM rosiglitazone, 0.5 mM isobutylmethylxanthine, 1 μM dexamethasone, 5 μg/mL insulin. After two days, cells were re-fed with growth media containing 1 μM rosiglitazone and 5 μg/mL insulin. Cells were fully differentiated after 6-8 days. For ISM1 knockdown or overexpression in primary adipocytes using adenovirus, 500 μL crude virus was mixed with 500 μL fresh growth media containing 1 μM rosiglitazone and 5 μg/mL insulin was added to each well at day 2 of differentiation. At day 4, virus-containing media was removed and 500 μL fresh growth media without stimulators was added to each well. SGBS cells were differentiated as described previously (Fischer-Posovszky et al., 2008; Wabitsch et al., 2001). Briefly, cells were cultured in growth media DMEM/F-12 Glutamax, supplemented with 10% fetal bovine serum, 33 uM biotin, and 17 uM pantothenate. Two days post confluency, differentiation was induced with serum-free DMEM/F12 media containing 33 uM biotin, 17 uM pantothenate, 0.01 mg/ml transferrin, 20 nM insulin, 100 nM cortisol, 0.2 nM triiodothyronine, 25 nM dexamethasone, 0.25 mM isobutyl methylxanthine, and 2 μM rosiglitazone. After four days, cells were re-fed with growth media containing 0.01 mg/ml transferrin 20 nM insulin, 100 nM cortisol, 0.2 nM triiodothyronine. Cells were fully differentiated after day 8-10.
Glucose uptake. Glucose uptake was performed as previously described (You et al., 2017). Briefly, 2-Deoxy-d-[2,6-3H]-glucose was purchased from PerkinElmer NEN radiochemicals. Fully differentiated adipocytes were washed with KRH buffer and starved in 0.5% BSA in KRH buffer for 4 h. Indicated concentrations of insulin or ISM1 were added at indicated time points. Cells were treated with a mixture of 500 μM 2-deoxy-D-glucose and 1.71 μCimL^−1 2-Deoxy-D-[1,2-3H (N)]-glucose for another 10 min followed by three washes using ice cold KRH buffer containing 200 mM glucose. The passive glucose uptake in the presence of 50 uM CytoB was less than 12% of the total glucose uptake. Cells were solubilized in 1% SDS and radioactivity was measured by liquid scintillation counting.

[2] = system: human primary skeletal muscle cells; assay: 2-deoxy-3H-glucose uptake in human primary skeletal muscle cells; assay type: cell-based; conditions: for induction of glucose uptake compared with control cells: 1 h

B1: ISM1: recombinant mouse ISM1 protein with a C-terminal myc-his tag generated in mammalian HEK 293 Expi cells (protein, UniProt A2ATD1 30-454, looked up)
Isthmin-1: SDRQDAAAGNNNLNLESDSTSETSFPLSKEAPEEHQVVHQPFPRQRFPPETGHPSLQRDGPRSFLLDLPNFPDLSKADINGQNPNIQVTIEVVDGPDSEAEKDQHPENKPSWSLPAPDWRAWWQRSLSLARTNSGDQDDKYDSTSDDSNFLSVPRGWDRPAPGHRTFETKEQPEYDSTDGEGDWSLWSVCSVTCGNGNQKRTRSCGYACIATESRTCDRPNCPGIEDTFRTAATEVSLLAGSEEFNATKLFEVDMDSCERWMSCKSEFLKKYMHKVINDLPSCPCSYPTEVAYSTADIFDRIKRKDFRWKDASGPKEKLEIYKPTARYCIRSMLSLESTTLAAQHCCYGDNMQLITRGKGAGTPNLISTEFSAELHYKVDVLPWIICKGDWSRYNEARPPNNGQKCTESPSDEDYIKQFQEAREY
modifications: C-terminal myc-His tag
notes: recombinant mouse ISM1 protein with a C-terminal myc-his tag generated in mammalian HEK 293 Expi cells
insulin tolerance (ITT) (DIO mice): modest improvement | ad lib glucose levels (DIO mice; vs vehicle): no difference | half-life in the blood ([1]; 10 mg/kg I.V., serum, anti-his ELISA): approximately 70 minutes | protein integrity in plasma (western blot) ([1]; after I.V. administration): no observed protein degradation or cleavage | effect on glucose uptake relative to that of insulin (human SGBS adipocytes; SGBS cells): 50-100% | increase in glucose uptake (human SGBS adipocytes; [3H]-2-deoxy-glucose, starting from 20 nM, 30 minutes): 1.5 fold | concentration from which glucose uptake is increased (human SGBS adipocytes; doses ranging from 10 nM to 200 nM): 20 nM | induction of glucose uptake compared with control cells ([2]; 50 nM): 5 fold | induction of glucose uptake compared with control cells ([2]; 200 nM): 7 fold | effect on glucose uptake relative to that of insulin ([2]; human skeletal muscle cells): 70%
